The source of these data is US20200199214A1 (Hoffmann-La Roche, published 2020).

For orientation: Kd means the equilibrium constant for the complex coming apart. For orientation: koff means the first-order rate constant of dissociation. Read a high koff as fast dissociation. What is called kon is the rate constant with which the complex forms. Low values mean slower complex formation, high ones faster complex formation. What is called t½ is the time in which the quantity being followed falls by half. A lower t½ goes with fast loss. Broadly, the IC50 is the concentration needed to halve the response being measured.

Assay [1] deals with T1, cynomolgus IL-1 beta (Sino Biological 90010-CNAE) (cynomolgus, UniProt P79182 117-268).
T1 sequence (looked up): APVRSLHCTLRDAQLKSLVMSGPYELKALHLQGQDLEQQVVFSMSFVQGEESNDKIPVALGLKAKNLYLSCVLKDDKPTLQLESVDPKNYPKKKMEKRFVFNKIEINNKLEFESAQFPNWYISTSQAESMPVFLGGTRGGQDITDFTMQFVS
In words: SPR, Fab captured via anti-Fab antibody, cynomolgus IL-1beta injected, 1:1 Langmuir fit. On the procedure:
An anti-Fab capturing antibody (GE Healthcare 28958325) was immobilized to a Series S Sensor Chip C1 (GE Healthcare 29104990) using standard amine coupling chemistry resulting in a surface density of approximately 500 resonance units (RU). The bispecific anti-VEGF/anti-IL-1beta Fab fragment was captured to the surface with resulting capture levels of approximately 20 RU. A dilution series ranging from 0.74 to 60 nM (1:3 dilution) of either human IL-1 beta (PeproTech 200-01B) or cynomolgus IL-1 beta (Sino Biological 90010-CNAE) was injected for 90 s, dissociation was monitored for at least 600 s at a flow rate of 30 μl/min. The surface was regenerated by two consecutive injections of 10 mM Glycine pH 2.1 for 60 s each. Bulk refractive index differences were corrected by subtracting blank injections and by subtracting the response obtained from the control flow cell without captured bispecific anti-VEGF/anti-IL-1beta Fab fragment. Curve fitting was performed using the 1:1 Langmuir binding model within the Biacore evaluation software.
Binding kinetics to VEGF and IL-1beta for the candidate antibodies were assessed as described in Example 3 using the indicated bispecific anti-VEGF/anti-IL-1beta Fab fragments (amino acid sequence as illustrated in Table 3). For comparison, antigen binding kinetics of prior art anti-VEGF/anti-IL-1beta antibody 0032, a full length IgG antibody, as disclosed in WO2016/075034 are depicted.
(Surface plasmon resonance follows binding to a sensor surface in real time, without labels.)

The target in assay [2] is T2, human IL-1 beta (PeproTech 200-01B) (human, UniProt P01584 117-269).
T2 construct: As printed it covers only the N-terminal part of the precursor, so it was not used; also called huIL-1 beta; IL1β
Nature of the assay: SPR competition: Fab preincubated with 50 nM IL-1beta, injected over immobilised IL-1bR1 (competitor); in presence of VEGF. On the procedure:
As running and dilution buffer, HBS-P+(10 mM HEPES, 150 mM NaCl pH 7.4, 0.05% Surfactant P20) was used.
For assessing VEGF-receptor binding inhibition, a final concentration of 200 nM of R07200394 or 400 nM antibody 0032 was preincubated with 50 nM VEGF121. For assessing IL-1beta-receptor binding inhibition, a final concentration of 200 nM of R07200394 or 200 nM antibody 0032 was with preincubated with 50 nM IL-1beta. Samples were diluted (1:2) in the corresponding 50 nM VEGF121 or IL-1beta solution.
The antibody/ligand mixtures were injected onto the VEGFR2 or IL-1R1 surface for 60 s at a flow rate of 5 μl/min. After a dissociation phase for 60 s, the VEGFR2 surface was regenerated by injecting 5 mM NaOH for 60 s, whereas the IL-1R1 surface was regenerated by injecting 10 mM Glycine pH 3.0 followed by 5 mM NaOH for 60 s each. Bulk refractive index differences were corrected by subtracting blank injections and by subtracting the response obtained from the blank control flow cell. For evaluation, the binding response 5 seconds after inject end was taken. The derived response in RU was transformed to a binding response relative to the initial signal corresponding to the ligand(s) without antibody. IC50 values were calculated using a 4 parameter logistic model (XLfit, ID Business Solutions Ltd.)

Assay [3] concerns the target T3, human VEGF121 (human, UniProt P15692-9 27-147).
T3 construct: No tag is stated for these preparations; Kept apart from VEGF121-His; also called HuVEGF121
T3 sequence (looked up): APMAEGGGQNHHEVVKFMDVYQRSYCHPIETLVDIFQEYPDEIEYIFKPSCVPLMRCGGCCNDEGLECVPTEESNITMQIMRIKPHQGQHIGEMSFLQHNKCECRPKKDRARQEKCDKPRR
In words: competition ELISA: Fab preincubated with VEGF121, free VEGF121 bound to coated rhVEGFR-1-Fc detected; sheet title 'Competition ELISA VEGFR1-Fc, 8 pM VEGF121'. The method, then: 96-well-Plates (Maxisorp Nunc-Immoplates) were coated with 50 μL/well rhVEGFR-1-Fc (R&D #321-FL-050) at a final concentration of 1 μg/ml in 200 mM NaHC0₃, pH 9.4 for 1 hour at room temperature.
Meanwhile, antibody Fab fragments of different concentrations were preincubated with VEGF for form an antibody Fab-VEGF premix as follows: A dilution series of antibody Fab fragment was prepared by adding 280 μl of a solution of antibody Fab fragments (409.6 nM antibody in PBST-1% BSA) into the wells of the first column of a round bottom 96-well PS plate. The individual wells of columns 2-12 of the same plate were filled with 140 μl PBST-1% BSA. Subsequently, 1:2 dilutions were performed by transferring 140 μl of the antibody solution into the next column, thorough mixing and proceed with transferring 140 μl of this diluted antibody solution to the next column. This is repeated until column 11. Excess of 140 μl were discarded so that all wells comprise 140 μl. Column 12 served as the control (blank). […] 50 μl of the dilution series of the respective antibody Fab fragment were added to the VEGF121, or VEGF165, respectively; mixed thoroughly and incubated for 1.5 hours at room temperature.
The rhVEGFR-1-Fc coated plates were washed two times with PBST and blocked for 45 min with 200 μl of 2% MPBST. After washing off the MPBST solution twice with PBST, 50 μl of the antibody Fab-VEGF premix were added to the plate and incubated for 1.5 hours at room temperature. Subsequently, the plates were washed twice with PBST. Then, 50 μl of a solution comprising biotinylated anti-VEGF antibody (R&D, BAF293; 1:2000 dilution in PBST) and SA-HRP (KPL, 14-30-00; 1:2000 dilution in PBST) was added and incubated for 30 min at room temperature. After 6× washing with PBST, 50 μl of TMB substrate solution (two-component HRP substrate (KPL, 34021); used at room temperature) was added and incubated for 30 min at room temperature. 50 μl of 1N H₂SO₄ was added and absorbance was read at 450 nm.
(In general: ELISA stands for enzyme-linked immunosorbent assay.)

B1: bispecific anti-VEGF/anti-IL-1beta Fab fragment RO7200394 (Fab, V domains shown)
VH: DEQLVESGGGLVKPGGSLRLSCAAEGMVFKWNDMSWVRQAPGKGLEWVGSISKKGDHKYLNTKFIGRFTISRDNEKDTLYLQMNSLRAEDTAVYYCAKDVGFFDIWGQGTLVTVSS
VL: AIYMHQEPSSLSASVGDRVTITCHGSYWLSSLVAWYQQKPGKAPKLLIYDAKYKHLGVPSRFSGSKEDQEFTLTISSLQPEDFATYYCQQYRYHPYTFGHGTKVEIKR
notes: same variable domains as 1HVL12.85; also called R07200394
In assay [1], B1 yielded a Kd of 0.027 nM, a dissociation rate constant (koff) of 7.94e-05 s⁻¹, a kon of 2.97e+06 M⁻¹ s⁻¹ and a t½ of 2.43 h. The IC50 in assay [2] was found to be 24 nM. Besides, the “IC50 (read off the curve)” value in assay [3] is ~0.04 nM.
